This note sets out measurements from patent WO2018178074A1 (dated 2018).

Assay [1] has as its target T1, human FAP (soluble, second analyte in SPR) (human, UniProt Q12884 26-760).
T1 construct: also called human FAP protein
Kind of assay: SPR Biacore T200, biotinylated human 4-1BB Fc(kih) on SA chip, construct 200 nM, then human FAP 500 nM.

Another assay has as its target T2, human 4-1BB on cells (human, UniProt Q07011 24-255).
T2 construct: also called human 4-1BB on NF-kB-luciferase human-4-1BB HeLa clone 26 cells
Kind of assay: flow cytometry on activated human PBMC (legend of Figure 14). A general note: A flow cytometer gives signals particle by particle.

The next assay addresses T3, human FAP on cells (human, UniProt Q12884 1-760).
T3 construct: Natural FAP of the melanoma line WM266-4, or human FAP from vector pETR4921 in NIH/3T3 cells; also called huFAP on WM266-4 cells; human FAP on NIH/3T3-huFAP clone 39 cells
Kind of assay: flow cytometry on NIH/3T3-huFAP clone 39 cells.

T2 sequence (Q07011 24-255 limits assumed): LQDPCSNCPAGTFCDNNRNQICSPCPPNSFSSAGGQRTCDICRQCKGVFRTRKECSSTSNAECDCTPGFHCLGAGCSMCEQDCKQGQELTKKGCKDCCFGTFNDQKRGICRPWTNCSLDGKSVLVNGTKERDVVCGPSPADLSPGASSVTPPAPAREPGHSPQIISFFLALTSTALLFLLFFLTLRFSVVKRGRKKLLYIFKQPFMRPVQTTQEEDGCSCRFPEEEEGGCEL

B1: 25G7 x FAP 3+3 (bispecific antibody)
chain: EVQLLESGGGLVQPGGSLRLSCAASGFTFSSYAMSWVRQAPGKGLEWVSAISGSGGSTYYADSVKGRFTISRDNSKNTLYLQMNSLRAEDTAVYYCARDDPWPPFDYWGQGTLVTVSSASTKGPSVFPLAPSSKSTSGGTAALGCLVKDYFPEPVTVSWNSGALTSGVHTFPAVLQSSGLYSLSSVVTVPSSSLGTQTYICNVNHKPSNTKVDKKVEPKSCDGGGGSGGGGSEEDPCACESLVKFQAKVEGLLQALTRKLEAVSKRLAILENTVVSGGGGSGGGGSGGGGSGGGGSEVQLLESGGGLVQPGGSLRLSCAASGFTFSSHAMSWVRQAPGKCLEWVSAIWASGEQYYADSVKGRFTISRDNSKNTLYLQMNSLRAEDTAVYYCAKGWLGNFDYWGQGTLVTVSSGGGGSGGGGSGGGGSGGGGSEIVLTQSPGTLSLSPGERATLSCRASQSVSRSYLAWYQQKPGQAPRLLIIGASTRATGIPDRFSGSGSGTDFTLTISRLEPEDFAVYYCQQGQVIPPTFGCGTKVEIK
light: SSELTQDPAVSVALGQTVRITCQGDSLRSYYASWYQQKPGQAPVLVIYGKNNRPSGIPDRFSGSSSGNTASLTITGAQAEDEADYYCNSLDRRGMWVFGGGTKLTVRTVAAPSVFIFPPSDEQLKSGTASVVCLLNNFYPREAKVQWKVDNALQSGNSQESVTEQDSKDSTYSLSSTLTLSKADYEKHKVYACEVTHQGLSSPVTKSFNRGEC
notes: Trimer of three CMP chains, each paired with an anti-4-1BB light chain; no Fc; also called 3+3 25G7/28H1
As to B1, the binding result (in assay [1]; in the assay with human 4-1BB on cells; with human FAP on cells) was “binds” each time.

B2: 25G7 huIgG1 P329G LALA (antibody, V domains shown)
VH: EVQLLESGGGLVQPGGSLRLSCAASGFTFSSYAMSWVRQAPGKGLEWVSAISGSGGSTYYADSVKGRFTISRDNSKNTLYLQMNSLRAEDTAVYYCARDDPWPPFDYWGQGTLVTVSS
VL: SSELTQDPAVSVALGQTVRITCQGDSLRSYYASWYQQKPGQAPVLVIYGKNNRPSGIPDRFSGSSSGNTASLTITGAQAEDEADYYCNSLDRRGMWVFGGGTKLTVLG
notes: Human IgG1 with Pro329Gly, Leu234Ala, Leu235Ala; also called 25G7 hulgGI P329G LALA; parental huIgG1 P329G LALA 25G7
With B2, the binding result with human FAP on cells was “no binding”.

B3: 12B3 huIgG1 P329G LALA (antibody, V domains shown)
VH: QVQLVQSGAEVKKPGSSVKVSCKASGGTFSSYAISWVRQAPGQGLEWMGGIIPIFGTANYAQKFQGRVTITADKSTSTAYMELSSLRSEDTAVYYCARSEFRFYADFDYWGQGTTVTVSS
VL: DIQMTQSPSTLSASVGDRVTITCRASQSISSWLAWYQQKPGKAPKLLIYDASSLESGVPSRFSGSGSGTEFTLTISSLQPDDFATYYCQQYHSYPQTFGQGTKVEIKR
notes: Human IgG1 with Pro329Gly, Leu234Ala, Leu235Ala; also called 12B3 hulgGI P329G LALA; parental huIgG1 P329G LALA 12B3
With B3, the binding result in the assay with human FAP on cells is given as “no binding”.
